Test results: patent publication US10464978B2, “Peptides and combination of peptides for use in immunotherapy against ovarian cancer and other cancers” (immatics biotechnologies GmbH, priority 2015, dated 2019)

target: HLA-A*02:01 (Homo sapiens, UniProt P04439, D140Y/D185E/D98H/E176V/E277Q/G131W/G231S/I119V/I121R/I166T/I218V/L300P/L318F/N151K/N90K/P208A/P217A/Q86G/Q94H/R138H/R169H/T345S); experiment: MHC binding assay: UV-ligand exchange with beta2m ELISA (peptide exchange yield); details: binding to HLA-A*02:01
Procedure, shortened: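 Values give exchange yield, measured by β2m ELISA: 100-fold-diluted monomers bound to streptavidin plates (1h, 37° C), probed with HRP anti-β2m at 2 ug/ml and read at 450 nm after TMB. Monomers came from UV-triggered cleavage of a photolabile peptide and exchange for the test peptide.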

Substance	Peptide exchange (MHC class I binding score, peptide exchange yield)
18 (YLVAKLVEV; listed as Homo sapiens) [compound 18]	“++” (≥20% = ++)
503 (SLNHFTHSV; listed as Homo sapiens) [compound 503]	“+++” (≥50 = +++)
211 (LLWPGAALL; listed as Homo sapiens) [compound 211]	“++” (≥20% = ++)
174 (ALAQYLITA; listed as Homo sapiens) [compound 174]	“+++” (≥50 = +++)
79 (SLFIGEKAVLL; listed as Homo sapiens) [compound 79]	“+++” (≥50 = +++)
613 (RLLPPGAVVAV; listed as Homo sapiens) [compound 613]	“+++” (≥50 = +++)
373 (SLLEDKGLAEV; listed as Homo sapiens) [compound 373]	“++” (≥20% = ++)
183 (FGLDLVTEL; listed as Homo sapiens) [compound 183]	“+++” (≥50 = +++)
130 (FLWNGEDSALL; listed as Homo sapiens) [compound 130]	“+++” (≥50 = +++)
207 (GLTSTNAEV; listed as Homo sapiens) [compound 207]	“++” (≥20% = ++)
460 (AMLEKNYKL; listed as Homo sapiens) [compound 460]	“++++” (≥75% = ++++)
428 (KLGHTDILVGV; listed as Homo sapiens) [compound 428]	“++” (≥20% = ++)
212 (ALWDQDNLSV; listed as Homo sapiens) [compound 212]	“++” (≥20% = ++)
408 (VLDDSIYLV; listed as Homo sapiens) [compound 408]	“++” (≥20% = ++)
507 (KLIDDQDISISL; listed as Homo sapiens) [compound 507]	“+++” (≥50 = +++)
126 (VLAYFLPEA; listed as Homo sapiens) [compound 126]	“++++” (≥75% = ++++)
98 (LIIDQADIYL; listed as Homo sapiens) [compound 98]	“+++” (≥50 = +++)

Substance	Peptide exchange (MHC class I binding score, peptide exchange yield)
200 (LLFGSVQEV; listed as Homo sapiens) [compound 200]	“+++” (≥50 = +++)
222 (NLIENVQRL; listed as Homo sapiens) [compound 222]	“++” (≥20% = ++)
267 (ALQDFLLSV; listed as Homo sapiens) [compound 267]	“+++” (≥50 = +++)
3 (SLASKLTTL; listed as Homo sapiens) [compound 3]	“++++” (≥75% = ++++)
163 (ALDEMGDLLQL; listed as Homo sapiens) [compound 163]	“+++” (≥50 = +++)
149 (NLLELFVQL; listed as Homo sapiens) [compound 149]	“+++” (≥50 = +++)
106 (LLYDAVHIVSV; listed as Homo sapiens) [compound 106]	“+++” (≥50 = +++)
78 (SLFSSLEPQIQPV; listed as Homo sapiens) [compound 78]	“+++” (≥50 = +++)
486 (AVMESIQGV; listed as Homo sapiens) [compound 486]	“+++” (≥50 = +++)
23 (VLLDDIFAQL; listed as Homo sapiens) [compound 23]	“+++” (≥50 = +++)
2 (SLLEADPFL; listed as Homo sapiens) [compound 2]	“+++” (≥50 = +++)
501 (LLDPNVKSIFV; listed as Homo sapiens) [compound 501]	“+++” (≥50 = +++)
195 (GLFADLLPRL; listed as Homo sapiens) [compound 195]	“+++” (≥50 = +++)
127 (KIGDEPPKV; listed as Homo sapiens) [compound 127]	“++” (≥20% = ++)
80 (FLYDNLVESL; listed as Homo sapiens) [compound 80]	“++” (≥20% = ++)
150 (RLWEEGEELEL; listed as Homo sapiens) [compound 150]	“+++” (≥50 = +++)

Other lines, results leading:

Peptide exchange (MHC class I binding score, peptide exchange yield)	Substance
“+++” (≥50 = +++)	302 (ALLQEGEVYSA; listed as Homo sapiens) [compound 302]
“+++” (≥50 = +++)	192 (KMLDGASFTL; listed as Homo sapiens) [compound 192]
“+++” (≥50 = +++)	179 (KVLNELYTV; listed as Homo sapiens) [compound 179]
“+++” (≥50 = +++)	161 (ALLEGVNTV; listed as Homo sapiens) [compound 161]
“+++” (≥50 = +++)	83 (ILAPTVMMI; listed as Homo sapiens) [compound 83]
“++” (≥20% = ++)	148 (ALNPEIVSV; listed as Homo sapiens) [compound 148]
“++” (≥20% = ++)	374 (FLLQQHLISA; listed as Homo sapiens) [compound 374]
“+++” (≥50 = +++)	34 (ILVEADSLWVV; listed as Homo sapiens) [compound 34]
“+++” (≥50 = +++)	74 (ALLDPEVLSIFV; listed as Homo sapiens) [compound 74]
“++” (≥20% = ++)	209 (KLIESKHEV; listed as Homo sapiens) [compound 209]
“++++” (≥75% = ++++)	91 (IMQDFPAEIFL; listed as Homo sapiens) [compound 91]
“+++” (≥50 = +++)	335 (YSLSSVVTV; listed as Homo sapiens) [compound 335]
“+++” (≥50 = +++)	537 (TLAPGEVLRSV; listed as Homo sapiens) [compound 537]
“++” (≥20% = ++)	392 (ALLHPQGFEV; listed as Homo sapiens) [compound 392]
“++” (≥20% = ++)	389 (LLADVTHLL; listed as Homo sapiens) [compound 389]
“++” (≥20% = ++)	172 (VLYSYTIITV; listed as Homo sapiens) [compound 172]
“+++” (≥50 = +++)	608 (SLLSVSHAL; listed as Homo sapiens) [compound 608]
